Laboratory results: patent US20220064332A1 (INSERM INSTITUT NATIONAL DE LA SANT ET DE LA RECHERCHE M …, published 2022)

What was measured:
[1] = target: T1, 4-kDa GST-cath-D pro-fragment (UniProt P07339 21-64, limits assumed); assay: immunoprecipitation of GST-cath-D fusion fragments
T1 construct: domain: 4-kDa pro-fragment; Produced in E. coli BL21
T1 chain (looked up): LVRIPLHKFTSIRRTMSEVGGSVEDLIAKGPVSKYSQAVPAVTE

[2] = target: T2, 14-kDa light chain GSTcath-D (UniProt P07339 65-162, limits assumed); assay: immunoprecipitation of GST-cath-D fusion fragments
T2 construct: domain: 14-kDa light chain; Produced in E. coli BL21
T2 sequence (P07339 65-162 limits assumed): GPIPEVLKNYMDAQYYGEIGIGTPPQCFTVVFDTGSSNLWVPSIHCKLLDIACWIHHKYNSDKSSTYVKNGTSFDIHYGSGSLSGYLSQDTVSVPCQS

[3] = target: T3, human 52-kDa pro-cath-D secreted from MDA-MB-231 cells (human, UniProt P07339 21-412); assay: sandwich ELISA: M2E8 capture of pro-cath-D from MDA-MB-231 conditioned medium, serial dilutions of IgG, anti-human Fc-HRP
T3 construct: domain: 52-kDa pro-cath-D; Captured from conditioned medium by the M2E8 antibody in the sandwich ELISA; also called secreted human 52-kDa pro-cath-D
Experimental: Cells were cultured in DMEM with 10% fetal calf serum (FCS, GibcoBRL). To produce conditioned medium, cells were grown to 90% confluence in DMEM medium with 10% FCS, and conditioned medium was centrifuged at 800×g for 10 min. For sandwich ELISA, 96-well plates were coated with M2E8 antibody in PBS (500 ng/well) at 4° C. overnight. After blocking non-specific sites with PBST/1% BSA, conditioned medium was added at 4° C. for 2 h. […] Cath-D was quantified in TNBC cytosols by sandwich ELISA, as described above, after coating with the D7E3 antibody in PBS (200 ng/well) and with the M1G8 antibody conjugated to HRP (1/80), and using recombinant pro-cath-D (1.25-15 ng/ml) for reference (6). TNBC cytosols were previously prepared and frozen (25). GST-cath-D fusion proteins were produced in the E. coli B strain BL21 as described (9).

binding result [1]: no binding | binding result [2]: no binding | EC50 [3]: 1.2 nM
B1: anti-cath-D antibody E2 (fully human IgG1λ) (antibody, V domains shown)
VH: EVQLVESGGSLVKPGGSLRLSCAASGFTFSNSYMNWVRQAPGKGLEWISYISGSSRYISYADFVKGRFTISRDNATNSLYLQMNSLRAEDTAVYYCVRSSNSYFGGGMDVWGRGTLVTVSS
VL: QSVLTQPASVSGSPGQSITISCAGTSSDVGGSYGVSWYQQHPGKAPKLMIYGDSYRPSGVSNRFSGSKSGNTASLTISGLQAEDEADYYCSSYTNYSTRVFGGGTKLAVL
